Test [1] addresses T1, 人TIGIT (full length, on cells) (human, UniProt Q495A1 22-244).
T1 sequence (looked up): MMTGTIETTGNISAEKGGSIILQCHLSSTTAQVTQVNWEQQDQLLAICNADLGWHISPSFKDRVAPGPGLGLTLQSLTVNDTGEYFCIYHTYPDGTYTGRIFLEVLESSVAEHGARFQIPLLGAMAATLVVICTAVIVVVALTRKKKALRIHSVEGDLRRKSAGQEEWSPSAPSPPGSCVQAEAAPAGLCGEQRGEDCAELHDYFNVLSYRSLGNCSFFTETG
In words: cell-based or functional assay.

Test [2] has as its target T1, 人TIGIT (full length, on cells). In words: flow cytometry on 293F cells expressing human TIGIT.
In test [3] the target is T2, 小鼠TIGIT (full length, on cells) (mouse, UniProt P86176 29-249).
T2 construct: whole, on cells; also called mouse TIGIT; W364-FlpinCHO.mpro1.FL
T2 sequence (looked up): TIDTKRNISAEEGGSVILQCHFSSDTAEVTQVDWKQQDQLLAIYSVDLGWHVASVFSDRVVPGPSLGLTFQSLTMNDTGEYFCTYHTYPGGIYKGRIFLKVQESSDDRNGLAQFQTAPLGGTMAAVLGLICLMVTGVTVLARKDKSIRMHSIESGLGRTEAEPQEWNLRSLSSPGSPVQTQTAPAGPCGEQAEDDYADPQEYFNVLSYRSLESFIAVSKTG
Briefly: flow cytometry on Flp-In CHO cells expressing mouse TIGIT.

Test [4] concerns the target T3, 食蟹猴TIGIT (full length, on cells) (cynomolgus monkey, UniProt A0A7N9I9V4 89-312).
T3 construct: whole, on cells; also called cynomolgus TIGIT; W364-FlpinCHO.cynopro1.FL
In words: flow cytometry on Flp-In CHO cells expressing cynomolgus TIGIT. Background: Flow cytometry measures light scatter and fluorescence of single cells or particles in a stream.

For test [5], the target named is T1, 人TIGIT (full length, on cells). In words: flow cytometry affinity on CHOK1 cells over-expressing human TIGIT, quantitative beads.
Test [6] deals with T4, W364-hPro1.ECD.His (human, UniProt Q495A1 22-141).
T4 construct: extracellular domain; Analyte in the SPR assay; 20 kDa used for molar concentration; also called W364-hPro1.ECD.his (Sino); 人TIGIT胞外结构域
T4 sequence (looked up): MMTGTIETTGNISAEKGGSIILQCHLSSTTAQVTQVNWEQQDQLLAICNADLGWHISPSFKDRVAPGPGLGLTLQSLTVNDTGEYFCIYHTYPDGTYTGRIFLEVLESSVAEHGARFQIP
Briefly: SPR (Biacore 8K), antibody captured by anti-human IgG Fc, TIGIT ECD as analyte, 1:1 model.

For test [7], the target named is T1, 人TIGIT (full length, on cells). In words: flow cytometry competition on 293F cells expressing human TIGIT; competitor CD155.ECD-mFc at 2 μg/mL.

T3 sequence (A0A7N9I9V4 entry or part of it): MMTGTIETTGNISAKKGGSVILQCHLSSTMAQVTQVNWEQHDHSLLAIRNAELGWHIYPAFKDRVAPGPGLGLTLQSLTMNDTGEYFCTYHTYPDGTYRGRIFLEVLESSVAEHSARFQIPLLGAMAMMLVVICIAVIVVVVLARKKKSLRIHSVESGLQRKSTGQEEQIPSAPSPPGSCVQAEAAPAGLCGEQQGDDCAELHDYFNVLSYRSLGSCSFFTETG

B1: W3645-2.131.4-hIgG1L3 (antibody, V domains shown)
VH: QLQLQESGPGLVKPSETLSLTCAVSGGSITSSSYYWGWIRQPPGKGLEWIGSIFFSGITYYNPSLKSRVTVSVDTSKNQFSLKLSSVTAADTAIYYCARRGLGGILASGYFDYWGQGTLVTVSS
VL: QSALTQPASVSGSPGQSITISCTGTSNDVGGYNYVSWYQQHPGKAPRLLIFDVSNRRTGISNRFSGSKSGITASLTISGLQAEDEADYYCSSYTSISTLVVFGGGTKLTVL
notes: Fully human (OMT rat derived), human IgG1; also called WBP3645先导抗体; WBP3645最终先导抗体
As for B1, the “ADCC EC50 (LDH release, PBMC effectors)” value in test [1] stood at 0.0019 nM. Besides, the “NFAT-荧光素酶报告基因 EC50” value in test [1] was determined as 0.92 nM. In addition, the half-maximal effective concentration (EC50) in test [2] is 0.17 nM; in test [3], 0.14 nM; in test [4] it was 0.05 nM. The Kd in test [5] worked out at 0.027 nM; in test [6], 0.75 nM. Also, the concentration for half-maximal inhibition (IC50) in test [7] worked out at 0.14 nM.

By EC50 is commonly meant the concentration at which the effect is half-maximal. Low values mean greater potency, high ones weaker potency. A word on the Kd: it is the concentration at which binding is half-saturated. Lower therefore signals a tighter complex. The IC50 is the midpoint of a concentration-inhibition curve. Lower therefore signals higher potency.

These data come from patent CN114641502A (SHANGHAI YINGMING BIOTECHNOLOGY CO LTD, dated 2022).
